Source: PMC12559092 (2025)

T1: VEGFR-2-Fc domain 1&2&3 (Homo sapiens, UniProt P35968)
T1 chain: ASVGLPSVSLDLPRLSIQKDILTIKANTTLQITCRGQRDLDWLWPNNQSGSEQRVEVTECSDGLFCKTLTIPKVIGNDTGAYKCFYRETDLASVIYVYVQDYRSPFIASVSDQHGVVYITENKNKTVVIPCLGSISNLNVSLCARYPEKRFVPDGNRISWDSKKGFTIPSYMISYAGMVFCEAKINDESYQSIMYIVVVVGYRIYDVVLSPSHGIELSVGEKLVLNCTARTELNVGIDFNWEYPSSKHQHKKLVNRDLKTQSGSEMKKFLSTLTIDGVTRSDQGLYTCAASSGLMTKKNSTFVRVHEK


Target: T1, VEGFR-2-Fc domain 1&2&3
Assay: biolayer interferometry

Kd [µM]	Binder
0.0035	VEGF-165 (protein) MTDRQTDTAPSPSYHLLPGRRRTVDAAASRGQGPEPAPGGGVEGVGARGVALKLFVQLLGCSRFGGAVVRAGEAEPSGAARSASSGREEPQPEEGEEEEEKEEERGPQWRLGARKPGSWTGEAAVCADSAPAARAPQALARASGRGGRVARRGAEESGPPHSPSRRGSASRAGPGRASETMNFLLSWVHWSLALLLYLHHAKWSQAAPMAEGGGQNHHEVVKFMDVYQRSYCHPIETLVDIFQEYPDEIEYIFKPSCVPLMRCGGCCNDEGLECVPTEESNITMQIMRIKPHQGQHIGEMSFLQHNKCECRPKKDRARQEKKSVRGKGKGQKRKRKKSRYKSWSVPCGPCSERRKHLFVQDPQTCKCSCKNTDSRCKARQLELNERTCRCDKPRR
~124	Ac-ESNITMQIMRIKPHQGQHIGEMSFLQHMK-NH2 [VEGF73-101]
